This data set concerns Escherichia coli TOP10. As to the kind of experiment: shrunken log2 fold change of peptide-encoding DNA abundance (4.5 h post-induction vs induction); higher = less antimicrobial activity (less host growth inhibition). As to conditions: time post-induction: 4.5 h; library: site-saturation at positions 5, 18, 19, 20.
Consider RRIRARPPRLPRPRPRPRHIPRP, for which the “shrunken log2 fold change” value was -0.177.
The result for RRIRQRPPRLPRPRPRPPAGPRP reads 0.866.
For the sequence RRIRMRPPRLPRPRPRPPYVPRP, the “shrunken log2 fold change” value was -0.0137.
Regarding RRIRVRPPRLPRPRPRPDQFPRP, the “shrunken log2 fold change” value is -0.0568.
The result for RRIRARPPRLPRPRPRPEWSPRP reads 0.949; that for RRIRLRPPRLPRPRPRPYTDPRP, -0.348.
The result for RRIRSRPPRLPRPRPRPSLDPRP reads -0.0696; that for RRIRYRPPRLPRPRPRPHVIPRP, -0.448; that for RRIRYRPPRLPRPRPRPMEEPRP, -0.138.
The result for RRIRKRPPRLPRPRPRPQDIPRP reads -0.116; that for RRIRLRPPRLPRPRPRPWYVPRP, -0.125.
Take RRIRSRPPRLPRPRPRPWMRPRP: the “shrunken log2 fold change” value was 0.709.
The result for RRIRVRPPRLPRPRPRPSPQPRP reads 0.0525; that for RRIRCRPPRLPRPRPRPSNSPRP, -0.644.
The result for RRIRWRPPRLPRPRPRPTWGPRP reads 0.356; that for RRIRPRPPRLPRPRPRPKLDPRP, 0.0519.
The result for RRIRWRPPRLPRPRPRPVCRPRP reads 0.353.
With RRIRCRPPRLPRPRPRPGFCPRP, the “shrunken log2 fold change” value came out at 0.124.
The result for RRIRFRPPRLPRPRPRPAPAPRP reads 0.674.
The result for RRIRYRPPRLPRPRPRPVICPRP reads -0.0887; that for RRIRARPPRLPRPRPRPPPAPRP, 1.25.
The result for RRIRWRPPRLPRPRPRPIQVPRP reads -0.0332; that for RRIRWRPPRLPRPRPRPDYPPRP, -0.169; that for RRIRCRPPRLPRPRPRPALMPRP, -0.011.
For the sequence RRIRVRPPRLPRPRPRPTWRPRP, the “shrunken log2 fold change” value is 0.686.
The result for RRIRQRPPRLPRPRPRPQELPRP reads 0.157; that for RRIRVRPPRLPRPRPRPVLTPRP, 0.146.
The result for RRIRTRPPRLPRPRPRPELTPRP reads 0.0104; that for RRIRVRPPRLPRPRPRPYPGPRP, -0.183.
The result for RRIRSRPPRLPRPRPRPFRGPRP reads -0.242.
Turning to RRIRWRPPRLPRPRPRPSWEPRP, the “shrunken log2 fold change” value is -0.0924.
Take RRIRLRPPRLPRPRPRPKRRPRP: the “shrunken log2 fold change” value is -0.259.
The result for RRIRPRPPRLPRPRPRPTADPRP reads 0.407.
The result for RRIRMRPPRLPRPRPRPQCTPRP reads 0.0479; that for RRIRDRPPRLPRPRPRPKWIPRP, -0.0438.
The result for RRIRARPPRLPRPRPRPLAVPRP reads 0.716; that for RRIRHRPPRLPRPRPRPWRVPRP, 0.0326.
In the case of RRIRNRPPRLPRPRPRPLMLPRP, the “shrunken log2 fold change” value was -0.842.
The result for RRIRWRPPRLPRPRPRPRCEPRP reads 0.545.
Turning to RRIRARPPRLPRPRPRPLMWPRP, the “shrunken log2 fold change” value was determined as 0.481.
The result for RRIRDRPPRLPRPRPRPPGKPRP reads 0.176; that for RRIRHRPPRLPRPRPRPNSIPRP, -0.0178.
The result for RRIRTRPPRLPRPRPRPKQHPRP reads 0.119; that for RRIRYRPPRLPRPRPRPPMRPRP, 0.317.
The result for RRIRVRPPRLPRPRPRPSVNPRP reads -0.291.
As to RRIRDRPPRLPRPRPRPSQMPRP, the “shrunken log2 fold change” value is 0.0862.
The result for RRIRGRPPRLPRPRPRPLWPPRP reads 0.836.
The result for RRIRWRPPRLPRPRPRPERMPRP reads 0.0689; that for RRIRNRPPRLPRPRPRPRYNPRP, -1.04.
Consider RRIRFRPPRLPRPRPRPGQIPRP, for which the “shrunken log2 fold change” value was -0.133.
The result for RRIRTRPPRLPRPRPRPYNAPRP reads -1.3; that for RRIRKRPPRLPRPRPRPGDEPRP, 0.128; that for RRIRDRPPRLPRPRPRPFMCPRP, -0.0266.
For RRIRHRPPRLPRPRPRPHFYPRP, the “shrunken log2 fold change” value is -0.139.
The result for RRIRQRPPRLPRPRPRPKVKPRP reads -0.223.
The result for RRIRRRPPRLPRPRPRPNHSPRP reads -0.321; that for RRIRKRPPRLPRPRPRPCGIPRP, 0.0772.
The result for RRIRKRPPRLPRPRPRPDQKPRP reads 0.401; that for RRIRQRPPRLPRPRPRPLDFPRP, -0.0491; that for RRIRIRPPRLPRPRPRPPDNPRP, -0.368.
Consider RRIRDRPPRLPRPRPRPLNYPRP, for which the “shrunken log2 fold change” value was -0.372.
As to RRIRYRPPRLPRPRPRPITRPRP, the “shrunken log2 fold change” value was determined as 0.0448.
Turning to RRIRLRPPRLPRPRPRPSLCPRP, the “shrunken log2 fold change” value was -0.462.
The result for RRIRMRPPRLPRPRPRPLMNPRP reads -0.263; that for RRIRIRPPRLPRPRPRPDCPPRP, 0.132.
For RRIRMRPPRLPRPRPRPKHAPRP, the “shrunken log2 fold change” value is 3.03.
The result for RRIRMRPPRLPRPRPRPKNQPRP reads 0.618; that for RRIRKRPPRLPRPRPRPRPWPRP, 0.947.
The result for RRIRLRPPRLPRPRPRPLCRPRP reads -0.496; that for RRIRTRPPRLPRPRPRPGGVPRP, 0.346.
The result for RRIRYRPPRLPRPRPRPHGMPRP reads -0.922.
Regarding RRIRLRPPRLPRPRPRPHPYPRP, the “shrunken log2 fold change” value was -0.379.
The result for RRIRGRPPRLPRPRPRPFKQPRP reads 0.13; that for RRIRGRPPRLPRPRPRPVDFPRP, 0.408.
RRIRARPPRLPRPRPRPTSQPRP: the “shrunken log2 fold change” value came out at 0.211.
The result for RRIRARPPRLPRPRPRPTTEPRP reads 0.443.
RRIRSRPPRLPRPRPRPPTKPRP: the “shrunken log2 fold change” value is 0.0856.
Regarding RRIRERPPRLPRPRPRPGKGPRP, the “shrunken log2 fold change” value was 0.208.
The result for RRIRHRPPRLPRPRPRPQPWPRP reads 0.0549; that for RRIRQRPPRLPRPRPRPVSVPRP, 0.028.
The result for RRIRIRPPRLPRPRPRPDERPRP reads -0.0172; that for RRIRPRPPRLPRPRPRPRQKPRP, 0.0891; that for RRIRDRPPRLPRPRPRPCSFPRP, -0.0466.
The result for RRIRPRPPRLPRPRPRPGQQPRP reads 0.167.
For RRIRPRPPRLPRPRPRPDSWPRP, the “shrunken log2 fold change” value turned out to be 0.392.
The result for RRIRRRPPRLPRPRPRPATHPRP reads 0.434; that for RRIRARPPRLPRPRPRPCFSPRP, -0.137.
The result for RRIRMRPPRLPRPRPRPWHGPRP reads -0.0653; that for RRIRRRPPRLPRPRPRPSPGPRP, 0.258.
The result for RRIRARPPRLPRPRPRPQYRPRP reads -0.208; that for RRIRRRPPRLPRPRPRPSAQPRP, 0.234.

Source of the values: the supplement of paper PMC9112550, “Optimization of the antimicrobial peptide Bac7 by deep mutational scanning” (BMC Biology, 2022).
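Note: peptides expressed intracellularly from a pBAD plasmid library in pooled LB shake-flask culture, induced with 0.3% L-arabinose, DNA abundance read by NGS, three biological replicates, DESeq2 with apeglm shrinkage.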
